The source of these data is paper PMC12824264 (2025).

First the molecules themselves.
B1: BMP10 growth factor domain (GFD) dimer (ligand)
chain: NAKGNYCKRTPLYIDFKEIGWDSWIIAPPGYEAYECRGVCNYPLAEHLTPTKHAIIQALVHLKNSQKASKACCVPTKLEPISILYLDKGVVTYKFKYEGMAVSECGCR
B2: sENG(D):BMP9 complex (complex)
chain 1: ETVHCDLQPVGPERGEVTYTTSQVSKGCVAQAPNAILEVHVLFLEFPTGPSQLELTLQASKQNGTWPREVLLVLSVNSSVFLHLQALGIPLHLAYNSSLVTFQEPPGVNTTELPSFPKTQILEWAAERGPITSAAELNDPQSILLRLGQAQGSLSFCMLEASQDMGRTLEWRPRTPALVRGCHLEGVAGHKEAHILRVLPGHSAGPRTVTVKVELSCAPGDLDAVLILQGPPYVSWLIDANHNMQIWTTGEYSFKIFPEKNIRGFKLPDTPQGLLGEARMLNASIVASFVELPLASIVSLHASSCGGRLQTSPAPIQTTPPKDTCSPELLMSLIQTKCADDAMTLVLKKELVAHLKCTITGLTFWDPSCEAEDRGDKFVLRSAYSSCGMQVSASMISNEAVVNILSSSSPQRKKVHCLNMDSLSFQLGLYLSPHFLQASNTIEPGQQSFVQVRVSPSVSEFLLQLDSCHLDLGPEGGTVELIQGRAAKGNCVSLLSPSPEGDPRFSFLLHFYTVPIPKTGTLSCTVALRPKTGSQDQEVHRTVFMRLNIISPDLSGCTSKG
chain 2: SAGAGSHCQKTSLRVNFEDIGWDSWIIAPKEYEAYECKGGCFFPLADDVTPTKHAIVQTLVHLKFPTKVGKACCVPTKLSPISVLYKDDMGVPTLKYHYEGMSVAECGCR
B3: BMP9 growth factor domain (GFD) dimer (ligand)
chain: B2 chain 2
B4: sENG(D):BMP10 complex (complex)
chain 1: B2 chain 1
chain 2: B1 chain
B5: sENG(M):BMP10 complex (complex)
chain 1: B2 chain 1
chain 2: B1 chain
B6: sENG(M):BMP9 complex (complex)
chain 1: B2 chain 1
chain 2: B2 chain 2

One assay has as its target T1, ALK1-Fc (UniProt P37023 22-118). The experiment in a line: SPR. (In general: In SPR one partner is held on a chip, and binding of the other changes the refractive index at the surface.)
The term koff denotes the first-order rate constant of dissociation. Take B1: the koff was 0.000169 s⁻¹. Turning to B2, the koff came to 0.000236 s⁻¹. This koff and that of the molecule before are within 1.5-fold of each other. As for B3, the koff was 0.000162 s⁻¹. As to B4, the koff came to 0.000329 s⁻¹.

For B5, the koff is 0.00017 s⁻¹. B6 returned a koff of 0.000124 s⁻¹.

In another assay the target is T1, ALK1-Fc. Description: SPR. The source holds these as a separate data set.
What is called Kd is the constant that tells how readily two partners part at equilibrium. A lower Kd goes with a tighter complex. Consider B2, for which the affinity, expressed as Kd, was 0.422 nM. Same read-out and setting: for B4 the value was 2.97 nM.

Regarding B5, binding was put at a Kd of 1.68 nM. The same measure, in the same setting: to B6 belongs 0.179 nM.
